Test results: PMC9708791

Target: PER2 (V5-Per2) (UniProt O15055)
Assay: co-immunoprecipitation of V5-Per2 and HA-GSK3β
Conditions: reference: wild-type HA-GSK3β; sites S9

GSK3β (HA-tagged, Addgene plasmid) (from UniProt P49841) HA-GSK3β S9A
binding against the reference: lost
